Results: PMC3044157, “The Nuclear Guanine Nucleotide Exchange Factors Ect2 and Net1 Regulate RhoB-Mediated Cell Death after DNA Damage” (PLoS ONE, 2011)

B1: neuroepithelial transforming gene 1 (Net1) (natural protein, human (endogenous in MCF-7 and HeLa), UniProt Q7Z628 1-596, looked up)
chain: MEPELAAQKQPRPRRRSRRASGLSTEGATGPSADTSGSELDGRCSLRRGSSFTFLTPGPNWDFTLKRKRREKDDDVVSLSSLDLKEPSNKRVRPLARVTSLANLISPVRNGAVRRFGQTIQSFTLRGDHRSPASAQKFSSRSTVPTPAKRRSSALWSEMLDITMKESLTTREIRRQEAIYEMSRGEQDLIEDLKLARKAYHDPMLKLSIMSEEELTHIFGDLDSYIPLHEDLLTRIGEATKPDGTVEQIGHILVSWLPRLNAYRGYCSNQLAAKALLDQKKQDPRVQDFLQRCLESPFSRKLDLWSFLDIPRSRLVKYPLLLKEILKHTPKEHPDVQLLEDAILIIQGVLSDINLKKGESECQYYIDKLEYLDEKQRDPRIEASKVLLCHGELRSKSGHKLYIFLFQDILVLTRPVTRNERHSYQVYRQPIPVQELVLEDLQDGDVRMGGSFRGAFSNSEKAKNIFRIRFHDPSPAQSHTLQANDVFHKQQWFNCIRAAIAPFQSAGSPPELQGLPELHEECEGNHPSARKLTAQRRASTVSSVTQVEVDENAYRCGSGMQMAEDSKSLKTHQTQPGIRRARDKALSGGKRKETLV
notes: Net1, nuclear guanine nucleotide exchange factor, endogenous in human cancer cell lines, detected by immunoblot; source: endogenous, MCF-7 lysate; endogenous, HeLa lysate
B2: epithelial cell transforming sequence 2 (Ect2) (natural protein, human (endogenous in MCF-7 and HeLa), UniProt Q9H8V3 1-914, looked up)
chain: MAENSVLTSTTGRTSLADSSIFDSKVTEISKENLLIGSTSYVEEEMPQIETRVILVQEAGKQEELIKALKTIKIMEVPVIKIKESCPGKSDEKLIKSVINMDIKVGFVKMESVEEFEGLDSPEFENVFVVTDFQDSVFNDLYKADCRVIGPPVVLNCSQKGEPLPFSCRPLYCTSMMNLVLCFTGFRKKEELVRLVTLVHHMGGVIRKDFNSKVTHLVANCTQGEKFRVAVSLGTPIMKPEWIYKAWERRNEQDFYAAVDDFRNEFKVPPFQDCILSFLGFSDEEKTNMEEMTEMQGGKYLPLGDERCTHLVVEENIVKDLPFEPSKKLYVVKQEWFWGSIQMDARAGETMYLYEKANTPELKKSVSMLSLNTPNSNRKRRRLKETLAQLSRETDVSPFPPRKRPSAEHSLSIGSLLDISNTPESSINYGDTPKSCTKSSKSSTPVPSKQSARWQVAKELYQTESNYVNILATIIQLFQVPLEEEGQRGGPILAPEEIKTIFGSIPDIFDVHTKIKDDLEDLIVNWDESKSIGDIFLKYSKDLVKTYPPFVNFFEMSKETIIKCEKQKPRFHAFLKINQAKPECGRQSLVELLIRPVQRLPSVALLLNDLKKHTADENPDKSTLEKAIGSLKEVMTHINEDKRKTEAQKQIFDVVYEVDGCPANLLSSHRSLVQRVETISLGEHPCDRGEQVTLFLFNDCLEIARKRHKVIGTFRSPHGQTRPPASLKHIHLMPLSQIKKVLDIRETEDCHNAFALLVRPPTEQANVLLSFQMTSDELPKENWLKMLCRHVANTICKADAENLIYTADPESFEVNTKDMDSTLSRASRAIKKTSKKVTRAFSFSKTPKRALRRALMTSHGSVEGRSPSSNDKHVMSRLSSTSSLAGIPSPSLVSLPSFFERRSHTLSRSTTHLI
notes: Ect2, nuclear guanine nucleotide exchange factor, endogenous in human cancer cell lines, detected by immunoblot (sc-1005); source: endogenous, MCF-7 lysate; endogenous, HeLa lysate

Molecular target: T1, GST-RhoB(17A), nucleotide free RhoB mutant (UniProt P62745 1-196, G17A)
T1 construct: RhoB, small GTPase of the Rho family, with the nucleotide-free mutation G17A; also called nucleotide-free mutant of RhoB; nucleotide-free Rho mutants (G17A)
Assay: pull-down; 20 ug purified GST-RhoB(17A) on glutathione-sepharose beads, incubated with clarified MCF-7 lysates for 60 min at 4 C; cells mock-treated or irradiated with 5 Gy (also 400 uM 5-FU for 72 h); immunoblot for the GEFs
Conditions: one partner purified

T1 sequence (P62745 whole entry G17A): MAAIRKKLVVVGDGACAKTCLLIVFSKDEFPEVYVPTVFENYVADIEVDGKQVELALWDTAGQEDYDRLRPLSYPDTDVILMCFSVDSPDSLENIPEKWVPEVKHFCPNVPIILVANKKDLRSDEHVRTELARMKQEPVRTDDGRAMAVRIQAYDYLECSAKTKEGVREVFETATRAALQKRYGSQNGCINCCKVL

Row | Binder | fold increase in binding after IR over mock-treated
1 | B1 | ≥ 5 fold
2 | B2 | ≥ 5 fold
